The target in assay [1] is T1, recombinant human WISP1/His (human, UniProt O95388 23-367).
T1 construct: also called hWISP1; recombinant human WISP1 protein; not shown: His tag
T1 sequence (looked up): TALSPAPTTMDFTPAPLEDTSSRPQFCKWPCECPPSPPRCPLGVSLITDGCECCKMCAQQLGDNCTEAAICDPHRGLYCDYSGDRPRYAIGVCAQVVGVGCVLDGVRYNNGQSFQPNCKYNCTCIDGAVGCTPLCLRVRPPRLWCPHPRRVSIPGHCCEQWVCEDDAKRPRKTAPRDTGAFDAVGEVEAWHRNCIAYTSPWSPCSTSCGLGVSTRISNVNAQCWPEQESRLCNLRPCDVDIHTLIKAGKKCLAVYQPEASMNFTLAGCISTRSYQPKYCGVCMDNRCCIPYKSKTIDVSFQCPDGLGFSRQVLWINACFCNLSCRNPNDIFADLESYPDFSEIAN
As to the kind of experiment: ELISA screening.

Assay [2] concerns the target T2, recombinant mouse WISP1/His (mouse, UniProt O54775 23-367).
T2 construct: also called murine WISP1; mWISP1; not shown: His tag
T2 sequence (looked up): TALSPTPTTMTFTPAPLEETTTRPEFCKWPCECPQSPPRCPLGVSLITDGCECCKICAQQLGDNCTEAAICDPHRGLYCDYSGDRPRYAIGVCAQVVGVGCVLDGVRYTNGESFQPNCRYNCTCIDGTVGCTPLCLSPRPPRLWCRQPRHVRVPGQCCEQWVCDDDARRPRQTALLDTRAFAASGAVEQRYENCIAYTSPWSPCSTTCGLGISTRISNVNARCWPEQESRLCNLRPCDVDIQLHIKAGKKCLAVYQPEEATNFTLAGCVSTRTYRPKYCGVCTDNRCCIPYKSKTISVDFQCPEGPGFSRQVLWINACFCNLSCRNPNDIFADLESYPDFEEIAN
In words: ELISA screening. For orientation: In an ELISA, binding on a coated surface is turned into a signal by an enzyme label.

For assay [3], the target named is T1, recombinant human WISP1/His. In words: SPR, IgG captured on anti-human Fc CM5 chip, human WISP1/His as analyte, 1:1 Langmuir fit. As to the method:
This example illustrates binding affinities of various anti-WISP-1 antibodies disclosed herein. Briefly, Anti-human Fc antibody (GE, BR-1008-39) was immobilized on CM5 sensor chip to approximately 1000 RU using standard NHS/EDC coupling methodology. Antibodies (about 10 μg/ml) were captured for 60 s at a flow rate 10 μl/min. Recombinant human WISP1/His was serially diluted in running buffer (HBS-EP). All measurements were conducted with a flow rate of 30 μL/min. Surfaces were regenerated with 3M MgCl2 for 60 s. A 1:1 (Langmuir) binding model was used to fit the data.

B1: WIr2G8 (antibody, V domains shown)
VH: QVQLVQSGAEVQKPGASVKVSCKASGYRFINNDIHWVRQATGQGLEWMGWMDPNNGKTGYAQKFQGRVTMTRDTSISTAYMELSSLRSEDTGVYYCVRGIIAAAGGGWGQGTLVTVSS
VL: DVVMTQSPSTLSASVGDRATITCRASQSVDTWLAWYQQKPGKAPHVLIYKASNLNSGVPSRFSGSGSGTEFTLTISSLQPDDFATYYCQQYKTWWTFGQGTKVEIK
notes: Fully human IgG; also called Wlr2G8
In the case of B1, the binding result in assay [1] and in assay [2] was “binds” in each case.

B2: WIr2H4 (antibody, V domains shown)
VH: EVQLVESGGDLVQPGGSLRLSCAASGFTLNSRDMHWVRQSTRTGLEWVAAISIAGDTYYPLSVRGRFTISRDTAKSSLYLQMNSLTDGDTAVYYCVRGRHFDGYKSVFFDSWGQGTLVTVSS
VL: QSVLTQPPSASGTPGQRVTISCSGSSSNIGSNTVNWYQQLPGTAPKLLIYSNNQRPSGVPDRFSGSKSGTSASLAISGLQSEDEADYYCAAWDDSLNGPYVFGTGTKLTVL
notes: Tested as IgG (captured by anti-human Fc); also called Wlr2H4
As usually defined, the Kd is the constant that tells how readily two partners part at equilibrium. One may read the koff as the rate constant with which the complex falls apart. As usually defined, the kon is the second-order rate constant of association. As for B2, the binding result in assay [2] is given as “binds”. For the same molecule, in assay [3], the equilibrium dissociation constant (Kd) came to 0.631 nM, the koff was 0.00025 s⁻¹ and the kon amounted to 396000 M⁻¹ s⁻¹.

B3: WIr2F6 (antibody, V domains shown)
VH: QMQLVQSGAEVKRPGASVKVSCKASGYSFTNFDINWVRQATGQGLEWMGWMDPNSGNSGSAPAFQGRVTMTRDTSIGTAYMELSGLTSEDTAVYYCARDDFYDSSGFDAWGQGTLVTVSS
VL: QSVLTQPPSASGTPGQTVTVSCSGRSSNVGSNTVDWYQHLPGTAPKLLIYSSNRRPSGVPDRFSGSKSGTSASLAISGLQSEDEADYYCAAWDDSLNVYVFGTGTKLTVL
notes: Tested as IgG (captured by anti-human Fc); also called Wlr2F6
As for B3, the binding result in assay [2] is reported as “binds”. In assay [3], the Kd worked out at 10.1 nM, the off-rate (koff) worked out at 0.00559 s⁻¹ and the kon turned out to be 554000 M⁻¹ s⁻¹.

B4: WIr2H3 (antibody, V domains shown)
VH: EVQLVQSGGGMVQPGGSLRLSCAASGFTFSDYYMDWVRQAPGQGLEWVGRIRHKAQGYTTEYAASVKGRFSISRDDSRSSLSLQMNSLKTEDTAVYYCAMVGGSRDWGQGTLVTVSS
VL: QAGLTQPPSVSGAPGQRVTISCTGGSSNIGPGYAVHWYQQHPGRAPKLLIYTNNNRPSGVPDRFSGSRSGTSASLAITGLQAEDDAYYYCQSYDSSLSGSVFGGGTKLTVL
notes: Tested as IgG (captured by anti-human Fc); also called Wlr2H3
Consider B4, for which, in assay [2], the binding result is “binds”. Further, in assay [3], the equilibrium dissociation constant (Kd) was 95.9 nM, the koff worked out at 0.00897 s⁻¹ and the kon stood at 93500 M⁻¹ s⁻¹.

B5: WIr2G7 (antibody, V domains shown)
VH: QVQLVQSGAEVKKPGASVKVSCKASGYTFTSYDINWVRQATGQGPEWLGWLNPGSGKTGNAQNFQGRVFMTWDTSKDTAYMEMSSLRSDDTAVYYCARNLDYWGQGTLVTVSS
VL: DIVMTQTPLSLPVTLGQPASISCRSSQSLVYSDGNTYLSWLQQRPGQPPRVLINQISNRFSGVPDRFSGSGAGTDFTLKISRVEAEDVGVYYCMQATQFPVTFGGGTKVEIK
notes: Fully human IgG; also called Wlr2G7
As for B5, the binding result in assay [1] and in assay [2] was “binds” in each case.

B6: WIr2H2 (antibody, V domains shown)
VH: EVQLVQSGADVKKPGASVKVSCQASGYTLTSYDIHWMRQAPGQGLEWMGWINPNSGNTGYAEKFQGRVAMTSHTSTSTVYMELSRLTSEDTAVYYCARGAMGGFDPWGQGTLVTVSS
VL: DIQMTQSPSSVSASVGDRVTITCRASQDISRWLAWYQQKPGKAPKLLIYAASTLQSGVPSRFSGSGSGTDFTLTISSLQPEDFATYYCQQANTFPITFGQGTRLEIK
notes: Fully human IgG; also called Wlr2H2
As to B6, the binding result in assay [1] and in assay [2] was “binds” throughout.

B7: WIr2D6 (antibody, V domains shown)
VH: EVQLVQSGAEVKRSGASVKVSCKLSGDTLTDLSIHWVRQAPGKGLEWMGGFDFEDGEIVYGDKFKGRVTVTEDPSTDTAYMDLKRLTFEDTAIYYCATIKDIPGRYYFDFWGQGTLVTVSS
VL: VIWMTQSPSSVSASVGDTVTITCRASQGIRSWLAWYQQKPGKAPKLLIYGASSLHSGVPSRFSGSGSGTYFTLTISSLQPEDFATYYCQQADSFPPWTFGQGTKVEIK
notes: Tested as IgG (captured by anti-human Fc); also called Wlr2D6
With B7, in assay [2], the binding result is listed as “binds”. For the same molecule, in assay [3], the Kd turned out to be 53.9 nM, the koff stood at 0.0489 s⁻¹ and the kon amounted to 907000 M⁻¹ s⁻¹.

B8: WIr2C11 (antibody, V domains shown)
VH: QVQLVESGGALVQPGGSLRLSCAASGFTFSDHWLSWVRQAPGKGLEWVSSISSSSRYIHYADSVKGRFTISRDNAKNSLYLQMNSLSAEDTAVYYCAREDTSMATNGFDVWGQGTMVTVSS
VL: AIQLTQSPSSLSASVGDRVTITCRASQGIRNHLGWYQQKPGKAPKRLIYAASSLQSGVPSRFSGSGSGTEFTLTISGLQPEDFATYYCLQHNSYPFTFGQGTRLEIK
notes: Tested as IgG (captured by anti-human Fc); also called Wlr2C11
For B8, the binding result in assay [2] is “binds”. Besides, in assay [3], the equilibrium dissociation constant (Kd) was 81.7 nM, the koff came to 0.0219 s⁻¹ and the kon came to 267000 M⁻¹ s⁻¹.

Source of the values: patent US20170304442A1 (SORRENTO THERAPEUTICS, published 2017).
